Measurements reported in publication PMC2563146.

Target: Gal4-ARNT-ΔTAD (PL283), Gal DNA-binding domain fusion of ARNT deleted for the transactivation domain
Test: two-hybrid

| fold increase of luciferase activity with 1nM TCDD [fold] | Substance |
| --- | --- |
| 10 | full-length AHRdbd, 'fish' of the mammalian two-hybrid (pTgTAHRdbd, PL1548) (from UniProt P30561 10-848) (natural protein) |
| 3 | wild-type AHR, 'fish' of the mammalian two-hybrid (pTgTAHRs, PL1550) (from UniProt P30561 10-848) (natural protein) |
